Assay results from paper PMC3515690 (Nature structural & molecular biology, 2012).

How the values were obtained:
[1] = target: T1, Atg7 with a Gly-Gly-Ser-Gly insertion after Leu291 (S. cerevisiae, UniProt P38862 1-630, Gly-Gly-Ser-Gly insertion after Atg7’s Leu291); test: cross-linking
T1 sequence (looked up): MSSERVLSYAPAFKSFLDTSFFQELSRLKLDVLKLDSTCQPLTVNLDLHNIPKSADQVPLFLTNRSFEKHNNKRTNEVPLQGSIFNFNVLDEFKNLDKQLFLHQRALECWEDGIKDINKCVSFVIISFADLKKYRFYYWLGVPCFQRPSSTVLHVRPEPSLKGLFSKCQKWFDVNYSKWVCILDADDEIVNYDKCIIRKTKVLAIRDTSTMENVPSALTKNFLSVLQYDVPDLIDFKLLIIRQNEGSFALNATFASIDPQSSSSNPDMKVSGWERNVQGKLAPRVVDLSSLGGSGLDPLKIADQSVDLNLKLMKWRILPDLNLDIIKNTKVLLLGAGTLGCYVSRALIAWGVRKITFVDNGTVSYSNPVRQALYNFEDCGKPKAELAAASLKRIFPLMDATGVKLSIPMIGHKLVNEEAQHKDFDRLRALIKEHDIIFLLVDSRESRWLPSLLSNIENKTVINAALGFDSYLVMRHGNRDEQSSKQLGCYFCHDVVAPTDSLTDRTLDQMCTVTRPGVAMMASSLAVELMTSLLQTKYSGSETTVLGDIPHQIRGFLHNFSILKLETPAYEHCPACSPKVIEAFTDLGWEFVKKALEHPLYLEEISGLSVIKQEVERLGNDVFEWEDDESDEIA

Atg7 V285D = target: T2, Atg7 V285D (S. cerevisiae, UniProt P38862 1-630, V285D); test: cross-linking
T2 sequence (looked up): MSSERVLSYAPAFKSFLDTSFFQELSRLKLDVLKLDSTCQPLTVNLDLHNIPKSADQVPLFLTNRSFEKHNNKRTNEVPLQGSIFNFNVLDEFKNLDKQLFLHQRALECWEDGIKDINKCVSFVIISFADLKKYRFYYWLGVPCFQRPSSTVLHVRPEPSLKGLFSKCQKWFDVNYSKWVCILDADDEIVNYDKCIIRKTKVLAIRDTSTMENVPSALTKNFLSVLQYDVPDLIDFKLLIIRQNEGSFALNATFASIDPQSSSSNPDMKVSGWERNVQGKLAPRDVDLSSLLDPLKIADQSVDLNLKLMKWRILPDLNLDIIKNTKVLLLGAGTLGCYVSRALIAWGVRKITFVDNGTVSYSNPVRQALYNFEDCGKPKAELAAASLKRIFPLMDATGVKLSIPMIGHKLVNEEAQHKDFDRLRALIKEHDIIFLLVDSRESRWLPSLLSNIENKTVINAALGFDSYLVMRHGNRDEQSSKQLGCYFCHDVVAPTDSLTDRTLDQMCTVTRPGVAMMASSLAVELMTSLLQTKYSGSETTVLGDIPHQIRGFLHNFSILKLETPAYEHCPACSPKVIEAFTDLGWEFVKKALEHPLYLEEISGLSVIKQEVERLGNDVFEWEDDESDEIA

Atg7 (residues 1–613) = target: T3, Atg7 (residues 1–613) (S. cerevisiae, UniProt P38862 1-613, catalytic Cys507 linked through bismaleimidoethane (BMOE) to Atg3 Cys234); test: crystal structure
T3 sequence (looked up): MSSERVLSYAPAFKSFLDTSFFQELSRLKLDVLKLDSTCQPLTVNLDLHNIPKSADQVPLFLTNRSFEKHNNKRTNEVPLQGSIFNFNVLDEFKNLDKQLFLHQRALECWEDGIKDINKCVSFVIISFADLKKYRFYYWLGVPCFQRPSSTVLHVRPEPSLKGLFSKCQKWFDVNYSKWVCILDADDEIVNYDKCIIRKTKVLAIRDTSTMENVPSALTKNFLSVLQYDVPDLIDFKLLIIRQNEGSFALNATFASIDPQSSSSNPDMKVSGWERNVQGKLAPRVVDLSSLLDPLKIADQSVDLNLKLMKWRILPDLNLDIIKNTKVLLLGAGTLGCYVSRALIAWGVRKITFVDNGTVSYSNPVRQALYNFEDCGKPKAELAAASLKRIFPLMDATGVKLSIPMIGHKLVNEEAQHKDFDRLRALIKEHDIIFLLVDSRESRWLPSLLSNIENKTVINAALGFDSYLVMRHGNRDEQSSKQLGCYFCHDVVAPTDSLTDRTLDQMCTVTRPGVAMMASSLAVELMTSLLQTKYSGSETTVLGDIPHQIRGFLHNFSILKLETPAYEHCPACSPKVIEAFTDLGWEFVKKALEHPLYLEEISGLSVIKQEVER

Measured: binding result

B1: Atg3(C41A C76A C83A) (enzyme, S. cerevisiae)
chain: MIRSTLSSWREYLTPITHKSTFLTTGQITPEEFVQAGDYLAHMFPTWKWNEESSDISYRDFLPKNKQFLIIRKVPADKRAEQAVEVEGPDVIMKGFAEDGDEDDVLEYIGSETEHVQSTPAGGTKDSSIDDIDELIQDMEIKEEDENDDTEEFNAKGGLAKDMAQERYYDLYIAYSTSYRVPKMYIVGFNSNGSPLSPEQMFEDISADYRTKTATIEKLPFYKNSVLSVSIHPCKHANVMKILLDKVRVVRQRRRKELQEEQELDGVGDWEDLQDDIDDSLRVDQYLIVFLKFITSVTPSIQHDYTMEGW
modifications: Cys234 reacted with bismaleimidoethane (BMOE)
binds: all assays above
